Experiments:
Fly Caf1 wild-type = target: T1, Fly Caf1 wild-type (fly, UniProt Q24572 1-430); assay: pull-down; GST-Ash1 fragments held on GST resin; 200 µL of 0.1 mg/mL purified Caf1 added for 1 h; 150 mM NaCl, 50 mM Tris-HCl (8.0); bound proteins analysed by SDS-PAGE; settings: both partners purified
T1 construct: Caf1 (p55/Nurf55), fly; The same paragraph speaks of 'full-length Caf1' for the AMC co-expression; probably full length here too; also called p55; Nurf55; source: Sf9 cells (baculovirus), purified (Ni-NTA, HiTrap Q HP, Superdex 200); not shown: His6, N-terminal, cleaved

[1] = target: T2, Fly Caf1 H3 binding pocket mutant (E235Q/D252K/E279Q) (fly, UniProt Q24572 1-430, E235Q | D252K | E279Q); assay: as above; settings: both partners purified
T2 construct: In the functional row this mutant stood as a subunit of the AMC complex (AMC mut); source: Sf9 cells (baculovirus), purified (Ni-NTA, HiTrap Q HP, Superdex 200); not shown: His6, N-terminal, cleaved
T2 sequence (Q24572 whole entry E235Q/D252K/E279Q): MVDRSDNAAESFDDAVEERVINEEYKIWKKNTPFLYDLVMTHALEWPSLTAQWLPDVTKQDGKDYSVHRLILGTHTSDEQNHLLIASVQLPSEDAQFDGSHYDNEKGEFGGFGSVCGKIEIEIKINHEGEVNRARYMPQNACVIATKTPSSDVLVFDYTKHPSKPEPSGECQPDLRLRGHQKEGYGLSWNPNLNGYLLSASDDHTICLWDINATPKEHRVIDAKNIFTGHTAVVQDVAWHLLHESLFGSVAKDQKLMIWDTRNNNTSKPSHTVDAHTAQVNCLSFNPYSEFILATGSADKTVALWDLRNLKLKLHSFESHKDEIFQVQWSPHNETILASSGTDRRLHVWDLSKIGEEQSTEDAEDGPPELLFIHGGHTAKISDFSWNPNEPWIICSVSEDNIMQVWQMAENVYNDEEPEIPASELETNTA

T1 sequence (Q24572 whole entry, the tested form may be a part): as the sequence (Q24572 whole entry E235Q/D252K/E279Q) above, with Q235E, K252D, Q279E counted along it

B1: GST-CBM (Ash1 Caf1 Binding Motif, 1582–1616) (domain or fragment, fly, UniProt Q9VW15 1582-1616, looked up)
chain: AKLQPLSEKEKKLVRQFNTFLVRNFEKIRRCKAKR
notes: Vector pGEX-4T-1; also called Ash1_C1.6; Ash1_CBM
Fly Caf1 wild-type
  binding result: binds
[1]
  binding result: binds

Source: paper PMC10148413, “Caf1 regulates the histone methyltransferase activity of Ash1 by sensing unmodified histone H3” (Epigenetics & Chromatin, 2023)
